Measurements from patent US20170226158A1 (AstraZeneca / MedImmune, published 2017).
Numbering of substitutions follows the chain as printed.

T1: SUMO-L-Myc fusion protein (recombinant bHLHZip domain of L-Myc fused with a small ubiquitin-like modifier … (UniProt P12524 281-364))
T1 construct: not shown: small ubiquitin-like modifier (SUMO) protein
T1 sequence (looked up): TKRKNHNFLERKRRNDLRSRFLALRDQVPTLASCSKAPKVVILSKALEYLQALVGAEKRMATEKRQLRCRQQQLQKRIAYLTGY

T2: CD73 (UniProt P21589 27-549, limits assumed)
T2 construct: Target antigen in phage ELISA; construct not described
T2 sequence (looked up): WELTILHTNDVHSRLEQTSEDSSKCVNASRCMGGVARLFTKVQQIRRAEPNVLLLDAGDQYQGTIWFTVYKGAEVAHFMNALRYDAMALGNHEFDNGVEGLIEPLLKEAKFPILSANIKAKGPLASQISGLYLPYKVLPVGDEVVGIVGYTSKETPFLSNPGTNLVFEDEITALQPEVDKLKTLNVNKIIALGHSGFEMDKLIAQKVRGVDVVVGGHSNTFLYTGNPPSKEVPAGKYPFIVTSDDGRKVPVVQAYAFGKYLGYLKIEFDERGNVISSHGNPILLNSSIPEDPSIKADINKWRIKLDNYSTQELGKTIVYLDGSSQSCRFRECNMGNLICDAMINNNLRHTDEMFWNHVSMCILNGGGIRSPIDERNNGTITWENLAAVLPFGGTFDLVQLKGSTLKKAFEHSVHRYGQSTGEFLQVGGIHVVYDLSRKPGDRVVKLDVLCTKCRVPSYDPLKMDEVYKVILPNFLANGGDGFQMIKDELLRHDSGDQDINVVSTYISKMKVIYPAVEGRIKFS

B1: LMYC mut8 (designed binder)
chain: DLGKKLLEAARAGQNDKVRILMANGAKVNAMDQYGFTPLHLAAWYGHRKIVKVLLKHGANVKAKDVHGFTPLHLAAWTGHLEIVKVLLKNGANVKARDNEGSTPLHLAALAGHLEIVKVLLKNGAKVNAQDKFGKTAFDISIENGNEKLAKILQKL
notes: Net charge 11; Tested on phage
B2: LMYC mut11 (designed binder)
chain: B1 chain with K27D, L81R, E82K
notes: Net charge 12; Tested on phage
B3: LMYC mut9 (designed binder)
chain: B1 chain with N93K, K95N
notes: as for B1
B4: LMYC mut7 (designed binder)
chain: B1 chain with K27N, N29K, K85E, N93D, K95N, L114R, E115K
notes: Tested on phage
B5: CD73 mut11 (designed binder)
chain: DLGKKLLEAARAGQNDKVRILMANGAKVNAADTWGRTPLHLAAYHGHLEIVKVLLKHGANVNAEDIHGFTPLHLAALWGHRKIVKVLLKNGAKVNAVDWYGHTPLHLAAIDGHRKIVKVLLKHGAKVNAQDKFGKTAFDISIENGNEKLAKILQKL
notes: as for B1
B6: KRAS mut8 (designed binder)
chain: DLGKKLLEAARAGQNDKVRILMANGAKVNARDHTGFTPLHLAAQHGHRKIVKVLLKNGAKVNAVDWFGRTPLHLAAKMGHLEIVKVLLKHGANVKADDHNGRTPLHLAAWEGHLEIVKVLLKYGAKVNAQDKFGKTAFDISIENGNEKLAKILQKL
notes: as for B2
B7: KRAS mut11 (designed binder)
chain: B6 chain with L81R, E82K, N93D, K95N, L114R, E115K
notes: Net charge 16; Tested on phage
B8: KRAS mut9 (designed binder)
chain: B6 chain with K60N, N62K, L81R, E82K, K85E, L114R, E115K, K126D
notes: Net charge 14; Tested on phage
B9: KRAS mut7 (designed binder)
chain: B6 chain with K27N, R48L, K49E, L81R, E82K
notes: as for B1
B10: KRAS mut10 (designed binder)
chain: B6 chain with L114R, E115K, I142V
notes: Net charge 15; Tested on phage
B11: KRAS mut6 (designed binder)
chain: B6 chain with K60D, N93K, K95N
notes: Net charge 10; Tested on phage
B12: DARPin 1 (template L-Myc DARPin, net charge -13) (designed binder)
chain: DLGKKLLEAARAGQDDEVRILMANGADVNAMDQYGFTPLHLAAWYGHLEIVEVLLKHGADVNAKDVHGFTPLHLAAWTGHLEIVEVLLKNGADVNARDNEGSTPLHLAALAGHLEIVEVLLKNGADVNAQDKFGKTAFDISIDNGNEDLAEILQKL
notes: also called tDARPin S-13; S-13 tDARPin

Assays:
[1] = molecular target: T1, SUMO-L-Myc fusion protein (recombinant …); assay: phage ELISA on target antigen, signal as % of parental WT
CD73 = molecular target: T2, CD73; assay: as above
KRAS = molecular target: T3, KRAS (UniProt P01116-2 1-188, limits assumed); assay: as above
T3 construct: Target antigen in phage ELISA; construct not described

[2] = molecular target: T1, SUMO-L-Myc fusion protein (recombinant …); assay: second phage ELISA on coated antigens

Binder	% antigen binding activity retained (relative to parental) [1]	% antigen binding activity retained (relative to parental) (KRAS)	further results
B1	> 50%	–	–
B2	> 50%	–	–
B3	> 50%	–	–
B4	> 50%	–	–
B5	–	–	% antigen binding activity retained (relative to parental) (CD73): > 50%
B6	–	> 50%	–
B7	–	> 50%	–
B8	–	> 50%	–
B9	–	> 50%	–
B10	–	> 50%	–
B11	–	> 50%	–
B12	–	–	binding result [2]: binds
